# Test results from patent publication US20260209383A1, “SITE-[…] […] ANTIBODY DRUG CONJUGATES” (SEAGEN INC., priority 2022, published 2026).
# B1: h2A2-mc-vc-MMAE(4): conventional anti-ITGB6 ADC, h2A2 without engineered cysteines conjugated with mc-vc-MMAE; positive control (conjugate)
# VH: QFQLVQSGAEVKKPGASVKVSCKASGYSFTDYNVNWVRQAPGQGLEWIGVINPKYGTTRYNQKFKGRATLTVDKSTSTAYMELSSLRSEDTAVYYCTRGLNAWDYWGQGTLVTVSS
# VL: DIQMTQSPSSLSASVGDRVTITCGASENIYGALNWYQQKPGKAPKLLIYGATNLEDGVPSRFSGSGSGRDYTFTISSLQPEDIATYYCQNVLTTPYTFGQGTKLEIK
# Assays:
# [1] = test system: HPAFII cells; assay: In vitro cytotoxicity assay (CellTiter-Glo), HPAFII; format: cell-based
# Procedure: (§1) In vitro cytotoxicity assay: The cytotoxic effect of an EC4-based ADC was measured by a cell proliferation assay employing the protocol in the Promega Corp. Technical Bulletin TB288; and Mendoza et a1., 2002, Cancer Res. 62:5485-5488), the methods of which are specifically incorporated by reference herein. Briefly, an aliquot of 40 μl of cell culture containing about 400 cells in medium was deposited in each well of a 384-well, opaque-walled plate. A 10 μL aliquot of free cytotoxic agent or ADC was added to the experimental wells and incubated for 96 hr and then incubated at room temperature for approximately 30 mins whereupon a volume of CellTiter-Glo™ reagent equal to the volume of cell culture medium present in each well was added. The contents were mixed for 2 mins on an orbital shaker to induce cell lysis and the plate was incubated at room temperature for 10 mins to stabilize the luminescence signal for recordation.
# Anti-ITGB6 ADCs were tested for potency. The antibodies were engineered with the cysteine pairs disclosed above in the previous Examples. The efficacy of anti-ITGB6 EC4 ADCs were also tested against conventional anti-ITGB6 ADCs. The cells were treated with conventional or EC4 ADCs, then the remaining cells were counted to assess the cytotoxic effects of each EC4 variant compared to conventional ADCs. […]
# [2] = test system: BxPC-3 cells; assay: In vitro cytotoxicity assay (CellTiter-Glo), BxPC-3; format: cell-based
# Procedure: as §1
# Anti-ITGB6 ADCs were tested for potency. The antibodies were engineered with the cysteine pairs disclosed above in the previous Examples. The efficacy of anti-ITGB6 EC4 ADCs were also tested against conventional anti-ITGB6 ADCs. The cells were treated with conventional or EC4 ADCs, then the remaining cells were counted to assess the cytotoxic effects of each EC4 variant compared to conventional ADCs. […] Cytotoxicity in BxPC-3 cells increased when the cells were treated with greater than 50 ng/mL of the positive control, conventional anti-ITGB6 ADCs (h2A2-mc-vc-MMAE). […] Both h2A2-mc-vc-MMAE and h2A2 S400C S114C-mc-vc-MMAE were cytotoxic to HPAFII cells when greater than 10 ng/mL ADC were used on the cells.
molecule,measurement,setting,value
B1,% viability at top concentration,[1],35%
same,x50,[1]; 96 hr,199 ng/mL
same,% viability at top concentration,[2]; BXPC3,36%
same,x50,"[2]; BXPC3, 96 hr",251 ng/mL
same,ADC concentration above which cytotoxicity increased,[2]; BxPC-3 cells,greater than 50 ng/mL
